# From patent EP4585616A1, “ANTIBODY CAPABLE OF SPECIFICALLY BINDING TO ROR1, […] THEREOF, AND PREPARATION METHOD THEREFOR AND USE THEREOF” (Hefei Institutes of Physical Science, Chinese Academy of …, priority 2022, dated 2024)
# Substitutions are numbered along the chain they refer to.
# B1: mAb001 (antibody, IgG2b, V domains shown)
# VH: EVRLQQSGPVLVKPGASVKMSCKASGYTFTDYNLHWVKQSHRQSLEWIGYINPNHDGTSYNQKFQGKATLTVDRSSSTAYMEFRSLTSEDSAVYYCARRVRTGTGLDDWGQGTTLTVSS
# VL: DVLMTQSPLSLPVSLGDQASISCRSSHNIVHTNGNTYLEWYLQKPGQSPKLLIYKVSNRFSGVPDRFSGSGSGTYFTLTISRVEAEDLGVYYCFQGSRFPYTFGGGTKLEIK
# notes: Mouse monoclonal antibody, IgG2b/k
# B2: Hu001-05 (antibody, V domains shown)
# VH: QVQLVQSGAEVKKPGASVKVSCKASGYTFTDYNLHWVRQAPGQGLEWMGYINPNHDATSYNQKFQGKVTMTVDTSTSTVYMELSSLRSEDTAVYYCARRVRTGTGLDDWGQGTTVTVSS
# VL: DVVMTQSPLSLPVTLGQPASISCRSSHNIVHTNANTYLEWYQQRPGQSPRLLIYKVSNRFSGVPDRFSGSGSGTDFTLKISRVEAEDVGVYYCFQGSRFPYTFGGGTKVEIK
# notes: Humanized; also called Hu001-5
# B3: Hu001-12 (antibody, V domains shown)
# VH: B2 VH with R38K, M48I, V68A, M70L
# VL: B2 VL with R50K
# notes: Humanized
# B4: Hu001-11 (antibody, V domains shown)
# VH: B2 VH with R38K, M48I, V68A, M70L
# VL: B2 VL
# notes: Humanized
# B5: Hu001-03 (antibody, V domains shown)
# VH: B2 VH with K67R, V72R
# VL: B2 VL with R50K
# notes: Humanized; also called Hu001-3
# B6: Hu001-14 (antibody, V domains shown)
# VH: B2 VH with R38K, M48I, V68A, M70L, V79A, R87T
# VL: B2 VL
# notes: Humanized
# B7: Hu001-08 (antibody, V domains shown)
# VH: B2 VH with R38K, M48I
# VL: B2 VL
# notes: Humanized; also called Hu001-8
# B8: Hu001-06 (antibody, V domains shown)
# VH: B2 VH
# VL: B2 VL with R50K
# notes: Humanized; also called Hu001-6
# B9: Hu001-15 (antibody, V domains shown)
# VH: B2 VH with R38K, M48I, V68A, M70L, V79A, R87T
# VL: B2 VL with R50K
# notes: Humanized
# B10: Hu001-3-MMAE (antibody, human IgG1, DAR about 4.15, V domains shown)
# VH: B2 VH with K67R, V72R
# VL: B2 VL with R50K
# modifications: vcMMAE on cysteines after TCEP reduction, positions not given
# notes: Antibody-drug conjugate of Hu001-3 (human IgG1, Kappa) with vcMMAE
# B11: Hu001-02 (antibody, V domains shown)
# VH: B2 VH with K67R, V72R
# VL: B2 VL
# notes: Humanized; also called Hu001-2
# B12: Hu001-2-MMAE (antibody, human IgG1, DAR about 4.15, V domains shown)
# VH: B2 VH with K67R, V72R
# VL: B2 VL
# modifications: vcMMAE on cysteines after TCEP reduction, positions not given
# notes: Antibody-drug conjugate of Hu001-2 (human IgG1, Kappa) with vcMMAE
# B13: Hu005-46 (antibody, V domains shown)
# VH: EVQLVESGGGLVKPGGSLRLSCAASGFTFNSYAMSWVRQTPGKRLEWVATISDAGSYTYYPDNEKGRFTISRDNAKNSLYLQMNSLRAEDTAIYYCVRGGYYYNLYAMDYWGQGTLVTVSS
# VL: DIVLTQSPDSLAVSLGERATINCKASQSVSFPGTSLMHWYQQKPGQQPKLLIYRASNLEAGVPDRFSGSGSRTDFTLTISSLQAEDVAVYYCQQSREYPWTFGGGTKVEIK
# notes: Humanized
# B14: Hu005-46-MMAE (antibody, human IgG1, DAR about 4.07, V domains shown)
# VH: B13 VH
# VL: B13 VL
# modifications: vcMMAE on cysteines after TCEP reduction, positions not given
# notes: Antibody-drug conjugate of Hu005-46 (human IgG1, Kappa) with vcMMAE
# B15: Hu005-44 (antibody, V domains shown)
# VH: B13 VH with R44G
# VL: B13 VL
# notes: Humanized
# B16: Hu005-41 (antibody, V domains shown)
# VH: B13 VH with S78N
# VL: B13 VL
# notes: Humanized
# B17: Hu005-43 (antibody, V domains shown)
# VH: B13 VH with R44G, S78N
# VL: B13 VL
# notes: Humanized
# B18: Hu005-45 (antibody, V domains shown)
# VH: B13 VH with G42E, R44G
# VL: B13 VL
# notes: Humanized
# B19: Hu005-35 (antibody, V domains shown)
# VH: B13 VH with G42E, S78N
# VL: B13 VL
# notes: Humanized
# B20: mAb005c_v1 (antibody, IgG1, V domains shown)
# VH: B13 VH with R19K, G42E, S78N, N84S, S85H, R87K, A88S, L116S
# VL: DIVLTQSPASLAVSLGQRAIISCKASQSVSFPGTSLMHWYQQKPGQQPKLLIYRASNLEAGVPTRFSGSGSRTDFTLNIHPVEEDDTATYYCQQSREYPWTFGGGTQLEIK
# notes: Chimeric mutant in hIgG1,k vector; the VH entry already holds the site-directed change; also called human-mouse chimeric antibody mutant of mAb005c; site-directed mutant of mAb005c
# B21: Hu005-42 (antibody, V domains shown)
# VH: B13 VH with G42E
# VL: B13 VL
# notes: Humanized
# B22: Hu005-44-MMAE (antibody, human IgG1, DAR about 4.12, V domains shown)
# VH: B13 VH with R44G
# VL: B13 VL
# modifications: vcMMAE on cysteines after TCEP reduction, positions not given
# notes: Antibody-drug conjugate of Hu005-44 (human IgG1, Kappa) with vcMMAE
# B23: Hu005-40 (antibody, V domains shown)
# VH: B13 VH with G42E, R44G, S78N
# VL: B13 VL
# notes: Humanized
# B24: mAb001c_v1 (antibody, IgG1, V domains shown)
# VH: B1 VH with G57A
# VL: B1 VL with G34A
# notes: Chimeric mutant in hIgG1,k vector; the entries already hold the site-directed changes; also called human-mouse chimeric antibody mutant of mAb001c; site-directed mutant of mAb001c
# Target: T1, Extracellular domain of human ROR1 protein (ROR1-ECD) (human, UniProt Q01973 30-403)
# T1 construct: Expressed in HEK293T cells; also called human ROR1-ECD; purified human ROR1 protein extracellular segment
# Assay: ELISA, purified ROR1-ECD
# T1 sequence (Q01973 other isoform, or with tags, fused parts or gaps): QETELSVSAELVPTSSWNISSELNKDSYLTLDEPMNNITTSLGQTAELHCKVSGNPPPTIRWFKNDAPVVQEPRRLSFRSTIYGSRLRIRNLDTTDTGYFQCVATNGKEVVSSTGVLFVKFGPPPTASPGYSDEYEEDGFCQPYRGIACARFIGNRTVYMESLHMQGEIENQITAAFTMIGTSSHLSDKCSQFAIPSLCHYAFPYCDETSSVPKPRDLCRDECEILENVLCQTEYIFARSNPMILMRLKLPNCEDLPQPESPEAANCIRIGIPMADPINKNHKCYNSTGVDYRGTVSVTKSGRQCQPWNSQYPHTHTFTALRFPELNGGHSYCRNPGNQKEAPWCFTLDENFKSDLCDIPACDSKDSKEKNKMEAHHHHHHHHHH
row,EC50 [nM],Binder
1,0.049,B1

# Target: T1, Extracellular domain of human ROR1 …
# Assay: ELISA, plate-coated ROR1-ECD
binding result,EC50 [nM],Binder
binds,–,B2
binds,–,B3
binds,–,B4
binds,–,B5
binds,–,B6
binds,–,B7
binds,–,B8
binds,–,B9
binds,–,B10
binds,–,B11
binds,–,B12
binds,–,B13
binds,–,B14
binds,–,B15
binds,–,B16
binds,–,B17
binds,–,B18
binds,–,B19
–,0.046,B20
binds,–,B21
binds,–,B22
binds,–,B23
–,0.028,B24

# Target: T2, human ROR1 on the surface of tumor cells (human, UniProt Q01973 30-937)
# T2 construct: whole, on cells; also called ROR1 on the cell surface; tumor cell ROR1
# Assay: FACS, MDA-MB-231 cells
# T2 sequence (Q01973 30-937): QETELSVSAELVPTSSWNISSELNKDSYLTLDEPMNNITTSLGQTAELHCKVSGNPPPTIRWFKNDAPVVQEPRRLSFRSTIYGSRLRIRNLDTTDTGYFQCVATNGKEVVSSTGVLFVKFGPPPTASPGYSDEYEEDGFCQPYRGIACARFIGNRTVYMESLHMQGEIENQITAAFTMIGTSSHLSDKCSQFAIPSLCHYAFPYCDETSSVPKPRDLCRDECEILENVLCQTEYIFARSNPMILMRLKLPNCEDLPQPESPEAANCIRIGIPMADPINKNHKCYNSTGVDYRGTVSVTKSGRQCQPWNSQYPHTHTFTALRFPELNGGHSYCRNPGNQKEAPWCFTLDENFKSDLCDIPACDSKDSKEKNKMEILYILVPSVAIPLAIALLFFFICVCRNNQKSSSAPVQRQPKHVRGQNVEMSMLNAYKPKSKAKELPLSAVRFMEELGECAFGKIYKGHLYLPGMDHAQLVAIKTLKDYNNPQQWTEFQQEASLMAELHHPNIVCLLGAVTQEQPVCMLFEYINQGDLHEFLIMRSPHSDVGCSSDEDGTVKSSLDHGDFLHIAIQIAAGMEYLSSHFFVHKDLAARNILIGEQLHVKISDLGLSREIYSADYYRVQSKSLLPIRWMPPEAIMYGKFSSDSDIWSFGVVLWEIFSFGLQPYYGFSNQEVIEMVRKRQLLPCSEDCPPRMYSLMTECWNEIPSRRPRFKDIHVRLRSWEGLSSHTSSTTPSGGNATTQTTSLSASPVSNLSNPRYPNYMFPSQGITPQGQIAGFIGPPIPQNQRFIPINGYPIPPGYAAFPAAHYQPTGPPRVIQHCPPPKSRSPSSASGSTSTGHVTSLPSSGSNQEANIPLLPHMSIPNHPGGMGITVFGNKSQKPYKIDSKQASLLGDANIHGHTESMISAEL
binding result,EC50 [nM],Binder
binds,–,B2
binds,–,B3
binds,–,B4
binds,–,B5
binds,–,B6
binds,–,B7
binds,–,B8
binds,–,B9
binds,–,B10
binds,–,B11
binds,–,B12
binds,–,B13
binds,–,B14
binds,–,B15
binds,–,B16
binds,–,B17
binds,–,B18
binds,–,B19
–,0.067,B20
binds,–,B21
binds,–,B22
binds,–,B23
–,0.073,B1
–,0.073,B24
